Here are results for 2 proteins from article PMC11513070.

Data set [1] is described as follows: cell-based cleavage assay, western blot. The following applies: glycan lost. In general terms: In western blotting, separated proteins are transferred to a membrane and probed.
Data set [2] is described as follows: western blot of total lysates, HEK293T. The following applies: glycan lost; control: wild type SPPL2c-myc.
Data set [3] is described as follows: immunofluorescence of HO-1 ICD nuclear translocation, HeLa. The following applies: glycan lost; control: wild type SPPL2c-myc.

B1: SPPL2c isoform A: N106A (protein)
parent chain: MACLGSLHPLGSLLLLFLLLLLSPEARGEYGLVRVVSKNWSKDYCVLYSSDYVNLPRDLHHAPLLSLHDGTKTPWCPDEDSFHQAQDSSPRQRPLHQTTTMVTRGNCSFYAKGWLAQDQGAQGLLIVSRARNQQCSDTISKPQDPSKPWPALTIPVAVLRYTDMLDIVSHTYGDTDVRVAMFAPLEPVTDYNMAIIFILAVGTVAAGGYWAGLMEANKLQRRQAQRGGGLGGHNQQQTVAAERSQRAWEDDDFEDAPMDFTPAMTGAVVTMSCSIMILLYFFYDCFVYVMIGIFSLGASTGLYSCLAPILCHLPLWRYQWVLPGQRVSVTWPLLLLAGLCAMVTVLWVIHRNEDHWAWLLQDTLGVAYCLFVLRRVRLPTFKNCTLFLLALLAFDVFFVFITPLFTKTGESIMVEVASGPADSSSHERLPMVLKVPRLSFSALTLCNQPFSILGFGDIVVPGFLVAYCHRFDMQVQSRQVYYMACTVAYAVGLLVTFVAMILMQMGQPALLYLVSSTLLTSLAVATCRQEFTLFWTGQGRAKIPAEPVAQPCIASAVGSKMKLEDAKDSRTTNRFEQAVDGESGDLESSTGDDMAEMVTLSEDEATSPEGHSESSEGWSDTNLDPNELPSGSPMALEAMLIPLIQPIPHPSELGHIRTQSRVHDSSLPWMGLHKRKGLKVKKSMSAQAPL
Consider B1, for which the enzymatic_activity entry in data set [1] (control: wild type SPPL2c-myc) and in data set [3] was “abolishes” throughout. Further, the expression_or_secretion entry in data set [2] is on record as “decreases”.

B2: SPP: N10/20A (protein)
parent chain: MDSAVSDPHNGSAEAGTPANGTTRPPSTPEGIALAYGSLLLMALLPIFFGALRSVRCARGKSSSDMPETITSRDAARFPIIASCTLLGLYLFFKIFSQEYINLLLSMYFFVLGILALSHTISPFMNKFFPANFPNRQYQLLFTQGSGENKEEIINYEFDTKDLVCLGLSSVVGVWYLLRKHWIANNLFGLAFSLNGVELLHLNNVSTGCILLGGLFIYDIFWVFGTNVMVTVAKSFEAPIKLVFPQDLLEKGLEADNFAMLGLGDIVIPGIFIALLLRFDISLKKNTHTYFYTSFAAYIFGLGLTIFIMHIFKHAQPALLYLVPACIGFPVLVALAKGEVAEMFSYEESNPKDPAAETESKEESTEASASKRLEKKEK
As for B2, the enzymatic_activity result in data set [1] (control: wild type SPP-myc) is listed as “no change”.
